These results are taken from patent US20250320281A1.

Holding throughout (experiment): cell-based or functional assay
Test [1] deals with HIV-1 Env of isolate 98IN022 (HIV-1).
In test [2] the target is HIV-1 Env of isolate MGRM-D-021 (pseudovirus) (HIV-1).
Test [3] addresses HIV-1 Env of isolate 93TH305 (subtype B pseudovirus) (HIV-1).
In test [4] the target is HIV-1 Env of isolate MGRM-D-020 (pseudovirus) (HIV-1).
For test [5], the target named is HIV-1 Env of isolate SF162 (subtype B pseudovirus) (HIV-1) (UniProt P19550).
In test [6] the target is HIV-1 Env of isolate MGRM-D-029 (pseudovirus) (HIV-1).
For test [7], the target named is HIV-1 Env of isolate QH0692.42 (subtype B pseudovirus) (HIV-1).
The target in test [8] is HIV-1 JRCSF Env (pseudovirus, clade B) (HIV-1) (UniProt P20871).
For test [9], the target named is HIV-1 NL43 envelope glycoprotein (Env) on pseudovirus (HIV-1).
The target of test [10] is HIV-1 92BR020 Env (pseudovirus, clade B) (HIV-1).
Test [11] concerns the target HIV-1 92UG005 envelope glycoprotein (Env) on pseudovirus (HIV-1).
The target of test [12] is HIV-1 Env of isolate MGRM-AG-006 (subtype AG) (HIV-1).
For test [13], the target named is HIV-1 Env of isolate MG RM-D-003 (HIV-1).
Test [14] deals with HIV-1 Env of isolate MGRM-A-014 (subtype A) (HIV-1).
Test [15] deals with HIV-1 Env of isolate MG RM-D-008 (HIV-1).
For test [16], the target named is HIV-1 Env of isolate 92UG005 (HIV-1).
Test [17] has as its target HIV-1 envelope glycoprotein (Env) of isolate MGRM-C-006 (HIV-1).
Test [18] concerns the target HIV-1 Env of isolate MGRM-A-013 (subtype A) (HIV-1).
Test [19] addresses HIV-1 envelope glycoprotein (Env) of isolate MGRM-C-024 (HIV-1).
For test [20], the target named is HIV-1 Env of isolate MGRM-C-004 (subtype C) (HIV-1).
The target in test [21] is HIV-1 Env of isolate MGRM-Chronic-B-012 (subtype B) (HIV-1).
Test [22] addresses HIV-1 Env of isolate 92UG024 (HIV-1).
Test [23] has as its target HIV-1 Env of isolate 97ZA012 (subtype C) (HIV-1).
Test [24] concerns the target HIV-1 envelope glycoprotein (Env) of isolate MGRM-C-007 (HIV-1).

5329_C19 (PGT-136) (antibody), sequence (VH): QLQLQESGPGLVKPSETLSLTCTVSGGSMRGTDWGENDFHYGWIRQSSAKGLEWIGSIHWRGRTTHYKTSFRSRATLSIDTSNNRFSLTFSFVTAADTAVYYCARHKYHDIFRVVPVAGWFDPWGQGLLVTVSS
5329_C19 (PGT-136) (antibody), sequence (VL): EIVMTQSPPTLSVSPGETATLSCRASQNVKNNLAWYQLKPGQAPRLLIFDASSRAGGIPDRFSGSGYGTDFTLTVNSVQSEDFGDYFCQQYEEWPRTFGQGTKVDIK
5345_I01 (PGT-137) (antibody), sequence (VH): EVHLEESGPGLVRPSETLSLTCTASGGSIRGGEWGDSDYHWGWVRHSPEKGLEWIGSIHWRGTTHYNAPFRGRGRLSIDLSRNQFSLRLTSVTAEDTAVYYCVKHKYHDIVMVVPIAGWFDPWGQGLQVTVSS
5345_I01 (PGT-137) (antibody), sequence (VL): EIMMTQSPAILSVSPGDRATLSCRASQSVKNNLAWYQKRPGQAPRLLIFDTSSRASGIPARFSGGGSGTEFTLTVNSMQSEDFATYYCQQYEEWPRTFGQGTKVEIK

In the case of 4838_L06 (PGT-121) (antibody), in test [1], the neutralization IC50 worked out at 0.007 µg/mL. Also, the IC50, pseudovirus neutralization in test [2] was 5.33 µg/mL; in test [4], 0.01 µg/mL; in test [6] it was > 50 µg/mL. Moreover, the IC50 (µg/mL), pseudovirus neutralization in test [3] worked out at 0.007 µg/mL; in test [5] it was 0.005 µg/mL; in test [7], 0.823 µg/mL.

As to 4858_P08 (PGT-123) (antibody), the IC50 neutralization in test [8] is 0.0423 µg/mL; in [10], 0.013 µg/mL. The neutralization IC50 was > 10 µg/mL in test [9], 0.011 µg/mL in test [1] and 2.49 µg/mL in [11]. Also, the neutralization IC80 in test [9] and in test [11] was > 10 µg/mL throughout. The neutralization IC90 in test [9] and in test [11] was > 10 µg/mL throughout. Further, the neutralization IC95 in test [9] and in test [11] was > 10 µg/mL in each case. Besides, the IC50, pseudovirus neutralization in [2] was 11.1 µg/mL; in test [4], 0.018 µg/mL; in test [6], > 50 µg/mL. The values for the IC50 (µg/mL), pseudovirus neutralization in [3], in [5] and in test [7] were 0.008 µg/mL, 0.005 µg/mL and 0.158 µg/mL, respectively.

In the case of 4877_D15 (PGT-122) (antibody), the figures for the IC50 neutralization in test [8] and in test [10] were 0.0727 µg/mL and 0.0337 µg/mL, respectively. The substance further showed a neutralization IC50 in test [1] of 0.032 µg/mL. Besides, the IC50, pseudovirus neutralization in test [2] is 11.7 µg/mL; in [4] it was 0.007 µg/mL; in [6] it was > 50 µg/mL. In addition, the IC50 (µg/mL), pseudovirus neutralization was determined as 0.013 µg/mL in [3], 0.009 µg/mL in test [5] and 0.493 µg/mL in test [7].

With 5114_A19 (PGT-128) (antibody), the IC50 (µg/mL), pseudovirus neutralization in test [12] turned out to be 0.009 µg/mL; in [13], 0.019 µg/mL; in [14] it was 0.007 µg/mL; in test [15], 0.033 µg/mL; in test [16], 0.018 µg/mL; in test [17], 0.014 µg/mL. Also, the IC50 (µg/mL), pseudovirus neutralization is 0.008 µg/mL in test [18], > 50 µg/mL in test [19], > 50 µg/mL in [22] and 0.111 µg/mL in [24]. Further, the IC50 neutralization in [20] amounted to 0.025 µg/mL; in test [21], 0.026 µg/mL; in test [23], 0.019 µg/mL.

In the case of 5123_A06 (PGT-125) (antibody), the results for the IC50 neutralization in test [8] and in test [10] were 0.006 µg/mL and 0.0214 µg/mL, respectively. Also, the neutralization IC50 in [1] was 22.1 µg/mL. Further, the IC50, pseudovirus neutralization in test [2] is 0.015 µg/mL; in test [4] it was > 50 µg/mL; in test [6], > 50 µg/mL. Moreover, the IC50 (µg/mL), pseudovirus neutralization in test [3] amounted to 0.008 µg/mL; in test [5], 0.004 µg/mL; in test [7], 0.048 µg/mL.

Turning to 5136_H01 (PGT-131) (antibody), the IC50 (µg/mL), pseudovirus neutralization in test [12] is 0.019 µg/mL; in test [13] it was 19.6 µg/mL; in [14], 15.4 µg/mL; in test [15], > 50 µg/mL; in test [16] it was 0.854 µg/mL; in test [17] it was 0.611 µg/mL. The IC50 (µg/mL), pseudovirus neutralization in test [18], in test [19], in test [22] and in [24] was > 50 µg/mL each time. The figures for the IC50 neutralization in test [20], in test [21] and in [23] were 3.71 µg/mL, 15.7 µg/mL and 1.81 µg/mL, respectively.

Take 5141_B17 (PGT-126) (antibody): the IC50 neutralization in [8] stood at 0.0061 µg/mL; in test [10], 0.0163 µg/mL. In addition, the IC50, pseudovirus neutralization is > 10 µg/mL in test [9]; 0.047 µg/mL in test [2]; 0.0181 µg/mL in test [11]; 0.023 µg/mL in [4]; > 50 µg/mL in test [6]. Further, the IC80 (pseudovirus neutralization) in [9] is > 10 µg/mL; in [11] it was 0.145 µg/mL. Besides, the figures for the IC90 (pseudovirus neutralization) in test [9] and in test [11] were > 10 µg/mL and 0.553 µg/mL, respectively. Moreover, the IC95 (pseudovirus neutralization) is > 10 µg/mL in test [9] and 2.45 µg/mL in [11]. This substance returned a neutralization IC50 in test [1] of 0.279 µg/mL. In addition, the IC50 (µg/mL), pseudovirus neutralization amounted to 0.013 µg/mL in test [3], 0.003 µg/mL in test [5] and 0.048 µg/mL in test [7].

In [1], 5145_B14 (PGT-127) (antibody) returned a neutralization IC50 of 19.2 µg/mL. For the same substance, the IC50, pseudovirus neutralization in test [2] was 0.056 µg/mL; in [4], 0.015 µg/mL; in test [6], > 50 µg/mL. The values for the IC50 (µg/mL), pseudovirus neutralization in test [3], in test [5] and in test [7] were 0.017 µg/mL, 0.019 µg/mL and 0.129 µg/mL, respectively.

Turning to 5147_N06 (PGT-130) (antibody), the IC50 (µg/mL), pseudovirus neutralization is 0.009 µg/mL in test [12]; 0.651 µg/mL in test [13]; 0.161 µg/mL in test [14]; > 50 µg/mL in test [15]; 0.959 µg/mL in test [16]; 0.095 µg/mL in test [17]. The IC50 (µg/mL), pseudovirus neutralization in [18], in test [19], in test [22] and in test [24] was > 50 µg/mL each time. Moreover, the IC50 neutralization in [8] came to 0.0089 µg/mL; in test [10], 1.12 µg/mL; in [20], 2.76 µg/mL; in [21], 0.373 µg/mL; in test [23], 1.32 µg/mL.

Consider 5329_C19 (PGT-136) (antibody), for which the IC50 (µg/mL), pseudovirus neutralization in test [12] was 29.1 µg/mL; in test [13] it was > 50 µg/mL; in test [14], > 50 µg/mL; in [15], > 50 µg/mL; in [16], > 50 µg/mL; in [17] it was > 50 µg/mL. The IC50 (µg/mL), pseudovirus neutralization in test [18] was > 50 µg/mL; in test [19], > 50 µg/mL; in [22], 0.052 µg/mL; in test [24], > 50 µg/mL. Also, the IC50 neutralization was > 10 µg/mL in [8]; > 10 µg/mL in [10]; 0.034 µg/mL in test [20]; 43.1 µg/mL in test [21]; > 50 µg/mL in [23].

5343_B08 (PGT-135) (antibody): the IC50 (µg/mL), pseudovirus neutralization in test [12] was 17.9 µg/mL; in test [13], > 50 µg/mL; in test [14], 0.636 µg/mL; in [15], > 50 µg/mL; in test [16], > 50 µg/mL; in [17] it was > 50 µg/mL. Further, the IC50 (µg/mL), pseudovirus neutralization in test [18] was > 50 µg/mL; in test [19], > 50 µg/mL; in [22] it was 0.01 µg/mL; in test [24], > 50 µg/mL. For the same substance, the IC50 neutralization in test [8] is 0.113 µg/mL; in [10] it was 0.104 µg/mL; in test [20], 0.046 µg/mL; in test [21], 0.166 µg/mL; in [23] it was > 50 µg/mL.

Turning to 5345_I01 (PGT-137) (antibody), the IC50 (µg/mL), pseudovirus neutralization in test [12] was 28.3 µg/mL; in test [13] it was > 50 µg/mL; in test [14], 18.6 µg/mL; in test [15] it was > 50 µg/mL; in test [16], > 50 µg/mL; in test [17] it was > 50 µg/mL. In addition, the IC50 (µg/mL), pseudovirus neutralization was 49.2 µg/mL in test [18], > 50 µg/mL in [19], 0.106 µg/mL in test [22] and > 50 µg/mL in test [24]. For the same substance, the IC50 neutralization in test [20] was 0.026 µg/mL; in test [21] it was > 50 µg/mL; in test [23], > 50 µg/mL.
